Data on two molecules can be found in patent US20170313764A1 (ACADEMISCH MEDISCH CENTRUM, published 2017).

The target in assay [1] is E1E2 of HCV isolate H77 with single mutation G436A (Hepatitis C virus genotype 1a, strain …, UniProt P27958 192-383; P27958 384-746). The assay is described as follows: ELISA, GNA-captured E1E2 lysate; EC50 wild type / EC50 mutant.
The target of assay [2] is E1E2 of HCV isolate H77 with single mutation S424A (Hepatitis C virus genotype 1a, strain …, UniProt P27958 192-383; P27958 384-746). Described as above.
For assay [3], the target named is E1E2 of HCV isolate H77 with single mutation Y443A (Hepatitis C virus genotype 1a, strain …, UniProt P27958 192-383; P27958 384-746). The description is as above.
For assay [4], the target named is E1E2 of HCV isolate H77 with single mutation Y485A (Hepatitis C virus genotype 1a, strain …, UniProt P27958 192-383; P27958 384-746). Described as above.
Assay [5] addresses E1E2 of HCV isolate H77 with single mutation F442A (Hepatitis C virus genotype 1a, strain …, UniProt P27958 192-383; P27958 384-746). The assay is described as above.
Assay [6] addresses E1E2 of HCV isolate H77 with single mutation W529A (Hepatitis C virus genotype 1a, strain …, UniProt P27958 192-383; P27958 384-746). The description is as above.
In assay [7] the target is E1E2 of HCV isolate H77 with single mutation W616A (Hepatitis C virus genotype 1a, strain …, UniProt P27958 192-383; P27958 384-746). The description is as above.
In assay [8] the target is E1E2 of HCV isolate H77 with single mutation N415A (Hepatitis C virus genotype 1a, strain …, UniProt P27958 192-383; P27958 384-746). The description is as above.
For assay [9], the target named is E1E2 of HCV isolate H77 with single mutation Y527A (Hepatitis C virus genotype 1a, strain …, UniProt P27958 192-383; P27958 384-746). The assay is described as above.
Assay [10] deals with E1E2 of HCV isolate H77 with single mutation D535A (Hepatitis C virus genotype 1a, strain …, UniProt P27958 192-383; P27958 384-746). The description is as above.
Assay [11] has as its target E1E2 of HCV isolate H77 with single mutation A439G (Hepatitis C virus genotype 1a, strain …, UniProt P27958 192-383; P27958 384-746). The description is as above.
Assay [12] concerns the target E1E2 of HCV isolate H77 with single mutation L441A (Hepatitis C virus genotype 1a, strain …, UniProt P27958 192-383; P27958 384-746). The description is as above.
The target in assay [13] is E1E2 of HCV isolate H77 with single mutation R657A (Hepatitis C virus genotype 1a, strain …, UniProt P27958 192-383; P27958 384-746). The assay is described as above.
For assay [14], the target named is E1E2 of HCV isolate H77 with single mutation G530A (Hepatitis C virus genotype 1a, strain …, UniProt P27958 192-383; P27958 384-746). The assay is described as above.
The target of assay [15] is E1E2 of HCV isolate H77 with single mutation T435A (Hepatitis C virus genotype 1a, strain …, UniProt P27958 192-383; P27958 384-746). Described as above.
The target in assay [16] is E1E2 of HCV isolate H77 with single mutation D698A (Hepatitis C virus genotype 1a, strain …, UniProt P27958 192-383; P27958 384-746). Described as above.
Assay [17] concerns the target E1E2 of HCV isolate H77 with single mutation T526A (Hepatitis C virus genotype 1a, strain …, UniProt P27958 192-383; P27958 384-746). The assay is described as above.
The target of assay [18] is E1E2 of HCV isolate AMS.2b.20876551.kloon21 (genotype 2b) (Hepatitis C virus genotype 2b). The assay is described as follows: cell-based or functional assay.
The target of assay [19] is E1E2 of HCV isolate AMS.4d.20875969 (genotype 4d) (Hepatitis C virus genotype 4d). The assay is described as follows: cell-based or functional assay.
In assay [20] the target is E1E2 of HCV isolate AMS.3a.21071213 (genotype 3a) (Hepatitis C virus genotype 3a). The assay is described as follows: cell-based or functional assay.

B1: AT12-010 (antibody, V domains shown)
VH: QLQLVQSGAEVKKPGSSVKVSCKASGGTFTSYAINWVRQVPGQGLEWMGEISPVFGTTHYAQKFQGRLKITADESADTAYMELSSLRSDDTAVYYCGRDRAPRLCSGGRCHSPPDHWGQGTLVTVSS
VL: DIQMTQSPSSVSASVGDRVTITCRASQGFGNWLAWYQQKPGRAPKLLIFGASTLQNGVPSRFSGSASGTDFTLTITSLQPEDFATYYCLQTNTFPYTFGQGTKVEIKR
As to B1, the “relative binding, mutant vs wild type” value in [1] was below 10%; in assay [2] it was 16%; in assay [3], below 10%; in assay [4], 107%; in assay [5] it was below 10%; in assay [6], below 10%. In addition, the “relative binding, mutant vs wild type” value in assay [7] is below 10%; in [8] it was 117%; in assay [9], 19%; in assay [10], 5%; in assay [11], 45%; in assay [12], below 10%. In addition, the “relative binding, mutant vs wild type” value in assay [13] was 99%; in assay [14] it was below 10%; in assay [15], 47%; in assay [16], 86%; in assay [17], 29%. Further, the “IC50, HCVpp neutralization” value was 0.61 µg/mL in [18], above 50 µg/mL in [19] and 1.41 µg/mL in assay [20]. In addition, the figures for the “IC90, HCVpp neutralization” value in assay [18], in assay [19] and in assay [20] were 20.4 µg/mL, above 50 µg/mL and above 50 µg/mL, respectively.

B2: AT12-007 (antibody, V domains shown)
VH: QVQLEQSGAEVKKPGASVKVSCKVSGYTLTELSMHWVRQAPGKGLEWMGSFDPADGERLYAQKFQGRVIMSEDTSTDTAYMELSSLRSEDAAVYYCATAPRMTMFGVIMALDSWGQGTLVTVSS
VL: DIQMTQSPSTLSASLGDRVTITCRASQNINKYLAWYQQKPGKAPKLLIYKASNLQSGVPSRFSGSGSGTDFILTISSLQPDDFATYYCQQYTTYSAWTFGQGTNVDIKR
Regarding B2, the “relative binding, mutant vs wild type” value in [1] was 35%; in assay [2], 34%; in assay [3], below 10%; in assay [4], 114%; in assay [5] it was below 10%; in [6], below 10%. Further, the “relative binding, mutant vs wild type” value in assay [7] was below 10%; in assay [8], 115%; in assay [9], 24%; in assay [10], 15%; in [11] it was 67%; in [12], below 10%. Moreover, the “relative binding, mutant vs wild type” value in assay [13] is 116%; in assay [14], below 10%; in [15], 84%; in assay [16], 103%; in assay [17], 31%. Besides, the “IC50, HCVpp neutralization” value in assay [18] is 0.26 µg/mL; in assay [19], above 50 µg/mL; in [20] it was 1.42 µg/mL. The “IC90, HCVpp neutralization” value in assay [18] is 9.41 µg/mL; in [19] it was above 50 µg/mL; in assay [20], 21.7 µg/mL.
